Laboratory results from US11053304 (CENTIVAX, dated 2021).
Residue numbers refer to the chain shown, from its start. Like-named read-outs stand apart in the source and are kept apart here.

B1: COVID19_P07_B08 (scFv, V domains shown)
VH: EVQLVESGGGLVQPGGSLRLSCAASGFTFDDYAMHWVRQAPGKGLEWVSVISGSGRNTYYADSVKGRFTISRDNSKNTLYLQMNSLRAEDTAVYYCVTNMDNSRDYFPHYFHDMDVWGQGTLVTVSS
VL: not shown
B2: COVID19_P08_H09 (scFv, V domains shown)
VH: B1 VH with D30S, M34L, V50G, I51V, G53W, S54N, R56S, N57R, Y59H
VL: not shown
B3: COVID19_P07_D04 (scFv, V domains shown)
VH: B1 VH with T28R, D30S, Y32H, A33P, S49A, S52T, T58K, Y59F
VL: DIVMTQSPLSLPVTPGEPASISCRSSQSLLHRNGYNYLDWYLQKPGQSPQLLIYGASTRATGVPDRFSGSGSGTDFTLKISRVEAEDVGVYYCTQSLQTPLTFGGGTKVEIKR
B4: COVID19_P20_F04 (scFv, V domains shown)
VH: B1 VH with T28A, D30S, D31S, M34L, V50A, R56G, N57D
VL: B3 VL with L38V, G55L, A56G, T58N, T61S, K79R, T94M, S96A, L97R
B5: COVID19_P08_C02 (scFv, V domains shown)
VH: B1 VH with D30S, D31S, V50G, I51V, G53A, R56G, N57G, T58P
VL: not shown
B6: COVID19_P08_A10 (scFv, V domains shown)
VH: B1 VH with T28I, D30N, A33G, V50A, R56G
VL: not shown
B7: COVID19_P07_H05 (scFv, V domains shown)
VH: B1 VH with D30S, D31S, A33G, V37I, S52T, S54D, T58K, Y59F
VL: not shown
B8: COVID19_P08_F07 (scFv, V domains shown)
VH: B1 VH with T28I, D30T, D31N, M34L, V50A, R56G, N57S, Y59H, M100L
VL: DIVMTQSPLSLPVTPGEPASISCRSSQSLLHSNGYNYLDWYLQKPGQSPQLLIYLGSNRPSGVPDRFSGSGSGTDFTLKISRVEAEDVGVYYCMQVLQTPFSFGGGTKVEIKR
B9: COVID19_P07_E10 (scFv, V domains shown)
VH: B1 VH with D30S, D31S, A33G, S49A, G53Y, S54D, R56S, T58K
VL: B3 VL with R32S, Y37D, A56G, T58N, R59G, T61S, T94M, S96A
B10: COVID19_P19_D02 (scFv, V domains shown)
VH: B1 VH with D30S, D31S, A33G, S49A, V50A, R56G, N57S, Y59H
VL: not shown
B11: COVID19_P20_F08 (scFv, V domains shown)
VH: B1 VH with D30S, D31S, G53A, R56G, M100L
VL: DIVMTQSPLSLPVTPGEPASISCRSSRSLLHTNGLNYIDWYLQKPGQSPQLLIYLGSNRASGVPDRFSGSGSGTDFTLKISRVEAEDVGVYYCTQALQTPISFGGGTKVEIKR
B12: COVID19_P08_C03 (scFv, V domains shown)
VH: B1 VH with D30S, D31S, S49A, G53S, T58K, Y59F, M100L
VL: not shown
B13: COVID19_P08_D11 (scFv, V domains shown)
VH: B1 VH with T28K, D30N, D31T, V50A, G53I, S54T, R56G
VL: not shown
B14: COVID19_P07_F11 (scFv, V domains shown)
VH: EVQLVESGGGLVQPGGSLRLSCAASGFTFSSYGMHWIRQAPGKGLEWVSAVSASGDRTHYADSVKGRFTISRDNSKNTLYLQMNSLRAEDTAVYYCVTNLDNSRDYFPHYFHDMDVWGQGTLVTVSS
VL: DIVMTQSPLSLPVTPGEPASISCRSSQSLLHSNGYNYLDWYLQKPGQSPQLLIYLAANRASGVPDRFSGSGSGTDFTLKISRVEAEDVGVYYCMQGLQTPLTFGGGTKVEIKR
B15: COVID19_P07_D10 (scFv, V domains shown)
VH: B1 VH with V50A, I51V, G53T, S54T, R56G, N57S
VL: not shown
B16: COVID19_P07_D05 (scFv, V domains shown)
VH: B1 VH with D30R, D31S, S49A, G53H, S54D, G55A, R56S, T58K
VL: not shown
B17: COVID19_P07_H06 (scFv, V domains shown)
VH: B14 VH
VL: not shown
B18: COVID19_P08_F08 (scFv, V domains shown)
VH: B1 VH with D30T, D31S, A33G, V50A, R56G, N57T
VL: not shown
B19: COVID19_P07_H03 (scFv, V domains shown)
VH: B1 VH with D30S, D31S, V50A, G53R, R56D, N57S, T58A
VL: not shown
B20: COVID19_P19_H03 (scFv, V domains shown)
VH: B1 VH with D30S, D31S, A33G, S49A, G53Y, S54D, R56S, T58K
VL: not shown
B21: COVID19_P07_G08 (scFv, V domains shown)
VH: B1 VH with D30S, D31S, V50A, R56G, N57S
VL: not shown
B22: COVID19_P07_E03 (scFv, V domains shown)
VH: B14 VH with T28I, Y32F, I37V, V51I, A53D, R57A, H59Q, L100M
VL: not shown
B23: COVID19_P08_B05 (scFv, V domains shown)
VH: B1 VH with D30S, D31S, A33G, V50A, R56G, N57T
VL: not shown
B24: COVID19_P07_F05 (scFv, V domains shown)
VH: B1 VH with D30S, D31N, V50G, G53S, S54G, R56S, N57G, Y59H
VL: not shown
B25: COVID19_P07_D08 (scFv, V domains shown)
VH: EVQLVESGGGLVQPGGSLRLSCAASGFTFRNYAMHWVRQAPGKGLEWVSAIGTGGDTYYADSVKGRFTISRDNSKNTLYLQMNSLRAEDTAVYYCVTNMDNSRDYFPHYFHDMDVWGQGTLVTVSS
VL: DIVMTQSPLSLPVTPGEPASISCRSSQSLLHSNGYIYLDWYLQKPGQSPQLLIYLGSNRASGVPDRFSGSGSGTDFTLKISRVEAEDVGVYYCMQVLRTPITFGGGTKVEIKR
B26: COVID19_P07_A12 (scFv, V domains shown)
VH: B25 VH with R30S, T53A, D56G
VL: B11 VL with R27Q, H31Y, T32S, N33D, L35D, N36T, I38L, T94M, I101L, S102T
B27: COVID19_P08_B11 (scFv, V domains shown)
VH: B14 VH
VL: DIVMTQSPLSLPVTPGEPASISCRSSQSLLHSNGYNRLAWYLQKPGQSPQLLIYLGSYRASGVPDRFSGSGSGTDFTLKISRVEAEDVGVYYCMQALQTPSFGGGTKVEIKR
B28: COVID19_P20_F05 (scFv, V domains shown)
VH: B14 VH with S31T, G33A, I37V, A50G, A53W, S54N, D56S, L100M
VL: not shown
B29: COVID19_P20_B01 (scFv, V domains shown)
VH: B1 VH with D30S, D31S, S49A, G53S, T58K, Y59F
VL: not shown

How the values were obtained:
Test in all cases: SPR, scFv captured via anti-V5, RBD as analyte
[1] = target: SARS-CoV-1 Receptor Binding Domain (RBD) protein (SARS-CoV-1, UniProt P59594 306-527)
[2] = target: MERS Receptor Binding Domain (RBD) protein (MERS coronavirus, UniProt K9N5Q8 367-606)
[3] = target: T1, SARS-CoV-2 Receptor Binding Domain (RBD) protein (SARS-CoV-2, UniProt P0DTC2 319-541)
[4] = target: T1, SARS-CoV-2 Receptor Binding Domain …; remark: listed apart in the source

Binder | binding result [1] | binding result [2] | Kd [3] [nM] | koff [3] [s⁻¹] | kon [3] [M⁻¹ s⁻¹] | Kd [4] [nM]
B1 | no binding (tested: up to 300 nM) | no binding (tested: up to 300 nM) | – | – | – | –
B2 | no binding (tested: up to 300 nM) | no binding (tested: up to 300 nM) | 1.1 | 5.7e-05 | 51000 | –
B3 | no binding (tested: up to 300 nM) | no binding (tested: up to 300 nM) | 2.3 | 5.7e-05 | 24400 | –
B4 | no binding (tested: up to 300 nM) | no binding (tested: up to 300 nM) | – | – | – | –
B5 | no binding (tested: up to 300 nM) | no binding (tested: up to 300 nM) | – | – | – | –
B6 | no binding (tested: up to 300 nM) | no binding (tested: up to 300 nM) | – | – | – | –
B7 | no binding (tested: up to 300 nM) | no binding (tested: up to 300 nM) | – | – | – | –
B8 | no binding (tested: up to 300 nM) | no binding (tested: up to 300 nM) | – | – | – | < 50
B9 | no binding (tested: up to 300 nM) | no binding (tested: up to 300 nM) | – | – | – | –
B10 | no binding (tested: up to 300 nM) | no binding (tested: up to 300 nM) | – | – | – | –
B11 | no binding (tested: up to 300 nM) | no binding (tested: up to 300 nM) | – | – | – | < 50
B12 | no binding (tested: up to 300 nM) | no binding (tested: up to 300 nM) | – | – | – | < 50
B13 | no binding (tested: up to 300 nM) | no binding (tested: up to 300 nM) | – | – | – | –
B14 | no binding (tested: up to 300 nM) | no binding (tested: up to 300 nM) | – | – | – | < 50
B15 | no binding (tested: up to 300 nM) | no binding (tested: up to 300 nM) | – | – | – | –
B16 | no binding (tested: up to 300 nM) | no binding (tested: up to 300 nM) | – | – | – | –
B17 | no binding (tested: up to 300 nM) | no binding (tested: up to 300 nM) | – | – | – | –
B18 | no binding (tested: up to 300 nM) | no binding (tested: up to 300 nM) | – | – | – | –
B19 | no binding (tested: up to 300 nM) | no binding (tested: up to 300 nM) | – | – | – | –
B20 | no binding (tested: up to 300 nM) | no binding (tested: up to 300 nM) | – | – | – | –
B21 | no binding (tested: up to 300 nM) | no binding (tested: up to 300 nM) | – | – | – | –
B22 | no binding (tested: up to 300 nM) | no binding (tested: up to 300 nM) | – | – | – | –
B23 | no binding (tested: up to 300 nM) | no binding (tested: up to 300 nM) | – | – | – | –
B24 | no binding (tested: up to 300 nM) | no binding (tested: up to 300 nM) | – | – | – | –
B25 | no binding (tested: up to 300 nM) | no binding (tested: up to 300 nM) | 1.7 | 5.7e-05 | 34100 | –
B26 | no binding (tested: up to 300 nM) | no binding (tested: up to 300 nM) | – | – | – | –
B27 | no binding (tested: up to 300 nM) | no binding (tested: up to 300 nM) | – | – | – | < 50
B28 | no binding (tested: up to 300 nM) | no binding (tested: up to 300 nM) | – | – | – | –
B29 | no binding (tested: up to 300 nM) | no binding (tested: up to 300 nM) | – | – | – | –
